In patent US20170073659A1 (MEDICINAL BIOCONVERGENCE RESEARCH CENTER, published 2017):

Biological target: T1, KRS WT-myc (C-terminus myc tagged KRS wild type) (human, UniProt Q15046 1-597)
T1 construct: Overexpressed in HCT116 cells and tested in lysate; The N-terminus may be cleaved in the cells under starvation; also called KRS-myc
Assay: anti-myc immunoprecipitation from starved cells, western blot for syntenin-1 (FIG. 3d)
Method: FIG. 3d illustrates results investigating the interaction between KRS and syntenin-1 using D12A mutant. C-terminus myc tagged KRS WT and D12A mutant were transfected and overexpressed in cells, and after 24 hr, the transfectants were incubated in serum starvation media for 1 hr, followed by precipitation using anti-myc antibody, and then KRS-bound syntenin-1 was monitored by western blot (mock: control with empty vector introduced into cells).
The cells were lysed with 50 mM Tris-HCl (pH 7.4) buffer containing 150 mM NaCl, 10 mM NaF, 12 mM beta-glycerophosphate, 1 mM EDTA, 1% NP-40, 10% glycerol, and protease inhibiting agent. Then, the supernatant was dissolved in SDS sample buffer, followed by separation using SDS-PAGE. For immunoblotting of endogenous KRS, anti-KRS antibody was used. Antibodies against Hsp90, syntenin-1, GFP, myc, caspase-3, -6, -8, -9, while syntenin-1 were purchased from Santa Cruz, and antibodies against alix were purchased from Cell Signaling. The anti-KRS antibody was manufactured by ordinary procedures in which KRS protein (Genbank Accession No. NP_005539.1) represented by SEQ ID NO: 2 was injected into New Zealand white rabbits to induce immune response and their antibodies were obtained. […]

T1 sequence (Q15046 whole entry): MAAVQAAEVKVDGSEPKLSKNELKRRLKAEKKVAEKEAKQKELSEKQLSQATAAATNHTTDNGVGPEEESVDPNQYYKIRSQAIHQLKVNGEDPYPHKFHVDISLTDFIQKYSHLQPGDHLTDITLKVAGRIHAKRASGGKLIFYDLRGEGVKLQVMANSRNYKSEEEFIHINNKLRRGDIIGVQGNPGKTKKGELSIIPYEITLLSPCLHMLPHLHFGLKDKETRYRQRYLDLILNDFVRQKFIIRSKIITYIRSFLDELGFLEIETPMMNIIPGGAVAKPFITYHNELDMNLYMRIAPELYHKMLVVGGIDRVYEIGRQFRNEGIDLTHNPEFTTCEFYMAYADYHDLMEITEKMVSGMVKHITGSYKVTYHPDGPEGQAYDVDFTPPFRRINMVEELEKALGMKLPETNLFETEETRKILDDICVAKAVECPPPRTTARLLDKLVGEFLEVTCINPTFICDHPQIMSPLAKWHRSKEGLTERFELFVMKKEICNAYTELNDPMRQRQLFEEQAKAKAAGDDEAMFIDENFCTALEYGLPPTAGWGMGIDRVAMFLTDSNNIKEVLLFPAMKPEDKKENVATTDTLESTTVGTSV

B1: syntenin-1, endogenous in HCT116 cells (other)
chain: SLYPSLEDLKVDKVIQAQTAFSANPANPAILSEASAPIPHDGNLYPRLYPELSQYMGLSLNEEEIRANVAVVSGAPLQGQLVARPSSINYMVAPVTGNDVGIRRAEIKQGIREVILCKDQDGKIGLRLKSIDNGIFVQLVQANSPASLVGLRFGDQVLQINGENCAGWSSDKAHKVLKQAFGEKITMTIRDRPFERTITMHKDSTGHVGFIFKNGKITSIVKDSSAARNGLLTEHNICEINGQNVIGLKDSQIADILSTSGTVVTITIMPAFIFEHIIKRMAPSIMKSLMDHTIPEV
**Q.** Does B1 bind?
**A.** Result: binds
